Among the test systems are XTN TALEN 1 left monomer; XTN TALEN 3 left monomer; XTN TALEN 2 left monomer.
Experiment in all cases: cell_activity
What all share (details): Cel-1 assay; activity of the TALEN pair

In data set [1] the test system is XTN TALEN 1 right monomer.
Data set [2] concerns XTN TALEN 3 right monomer.
Data set [3] concerns XTN TALEN 2 right monomer.

Sequence “TATGCGGACCTTTATCTATGGCTGGAATTTCCTAAGTGCAGGGAGCCACA (double strand) [TALEN 1 target, left half-site]” had an activity in the data set with XTN TALEN 1 left monomer of 5%.
“TATGCGGACCTTTATCTATGGCTGGAATTTCCTAAGTGCAGGGAGCCACA (double strand) [TALEN 1 target, right half-site]”: in data set [1], the activity came out at 5%.
In the case of “TCTGCCAACCTCACATACAGTATGTGGTTTAGTCATTGAGCAAATGCA (double strand) [TALEN 3 target, left half-site]”, the activity with XTN TALEN 3 left monomer stood at 3%.
On to “TCTGCCAACCTCACATACAGTATGTGGTTTAGTCATTGAGCAAATGCA (double strand) [TALEN 3 target, right half-site]”, for which the activity in data set [2] worked out at 3%.
The sequence “TGCAGTATGCGGACCTTTATCTATGGCTGGAATTTCCTAAGTGCAGGGA (double strand) [TALEN 2 target, left half-site]” showed an activity with XTN TALEN 2 left monomer of 9%.
In data set [3], “TGCAGTATGCGGACCTTTATCTATGGCTGGAATTTCCTAAGTGCAGGGA (double strand) [TALEN 2 target, right half-site]” came in with an activity of 9%.

The values are drawn from patent publication US20190037818.
